This note sets out measurements from article PMC8446286.

In this data set the target is T1, GST-PIF4 (Arabidopsis thaliana, UniProt Q8W2F3 1-430).
T1 sequence: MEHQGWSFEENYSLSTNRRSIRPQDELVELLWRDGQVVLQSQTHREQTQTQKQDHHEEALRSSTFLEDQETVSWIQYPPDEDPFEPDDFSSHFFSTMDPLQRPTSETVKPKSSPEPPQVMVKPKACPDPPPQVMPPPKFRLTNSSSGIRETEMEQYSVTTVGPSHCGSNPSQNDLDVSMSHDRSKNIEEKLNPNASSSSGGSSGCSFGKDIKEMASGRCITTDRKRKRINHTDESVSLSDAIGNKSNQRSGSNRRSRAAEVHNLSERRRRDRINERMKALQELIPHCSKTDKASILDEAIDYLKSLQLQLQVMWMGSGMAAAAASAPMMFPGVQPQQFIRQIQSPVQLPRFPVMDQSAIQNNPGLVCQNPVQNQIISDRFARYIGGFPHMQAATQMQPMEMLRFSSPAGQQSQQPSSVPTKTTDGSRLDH
Put plainly: EMSA. (Mobility shift assays separate free from complexed probe on a gel.)

B1: NAC019pro-G1 (dsDNA)
DNA 1: ATCACGACGATCTAACTGACACACGTGTCAGAATTCAAAAGTGTTTATAGATAAACACAA
DNA 2: TTGTGTTTATCTATAAACACTTTTGAATTCTGACACGTGTGTCAGTTAGATCGTCGTGAT
On to B1, for which the binding result is on record as “binds”.

B2: IAA29pro-G (dsDNA)
DNA 1: GAGTAGTCACGCACGCACGACTCCGTTCACGTGACATTCACGTTGATATTTCCCCCTCTA
DNA 2: TAGAGGGGGAAATATCAACGTGAATGTCACGTGAACGGAGTCGTGCGTGCGTGACTACTC
With B2, the binding result is reported as “binds”.

B3: IAA29pro-p (dsDNA)
DNA 1: GATGTTGGATGTCTAAATTCGTTGAATCATGTGTCTCTTGACGAAATATGCATCTTCTTA
DNA 2: TAAGAAGATGCATATTTCGTCAAGAGACACATGATTCAACGAATTTAGACATCCAACATC
In the case of B3, the binding result is “no binding”.

B4: NAC019pro-G34 (dsDNA)
DNA 1: TTGCGCCTAACTTCTACGATAGACACGTGGACACGTGTCGTCATGATGTAGTTTTGTCCG
DNA 2: CGGACAAAACTACATCATGACGACACGTGTCCACGTGTCTATCGTAGAAGTTAGGCGCAA
As to B4, the binding result is recorded as “binds”.

B5: NAC019pro-G2 (dsDNA)
DNA 1: CATTTCAGAAAACCCGTCAACAAAAAACACGTGAAATAAAATATCTCTTCCTTTACCAGT
DNA 2: ACTGGTAAAGGAAGAGATATTTTATTTCACGTGTTTTTTGTTGACGGGTTTTCTGAAATG
Take B5: the binding result is “no binding”.
